Test results reported in PMC6876245.
Where two headings read alike, the source gives them in different places.

T1: POT1-N (human, UniProt Q9NUX5 1-340)
T1 sequence: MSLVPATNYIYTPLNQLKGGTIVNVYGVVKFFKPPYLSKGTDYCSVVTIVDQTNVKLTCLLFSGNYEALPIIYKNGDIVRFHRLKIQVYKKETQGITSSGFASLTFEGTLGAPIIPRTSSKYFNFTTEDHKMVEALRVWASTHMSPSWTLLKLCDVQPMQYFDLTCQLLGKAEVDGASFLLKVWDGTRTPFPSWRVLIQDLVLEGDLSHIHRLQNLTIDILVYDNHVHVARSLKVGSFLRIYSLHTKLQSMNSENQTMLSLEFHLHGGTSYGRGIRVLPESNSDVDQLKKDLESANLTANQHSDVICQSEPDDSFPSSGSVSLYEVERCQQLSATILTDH


Legend:
[1] = target: T2, POT1 H266L;TPP1 (human;human, UniProt Q9NUX5;Q96AP0 1-634;3-248, H266L|); test: EMSA
Target sequence in this assay (Q9NUX5 whole entry H266L, chain 1 of 2): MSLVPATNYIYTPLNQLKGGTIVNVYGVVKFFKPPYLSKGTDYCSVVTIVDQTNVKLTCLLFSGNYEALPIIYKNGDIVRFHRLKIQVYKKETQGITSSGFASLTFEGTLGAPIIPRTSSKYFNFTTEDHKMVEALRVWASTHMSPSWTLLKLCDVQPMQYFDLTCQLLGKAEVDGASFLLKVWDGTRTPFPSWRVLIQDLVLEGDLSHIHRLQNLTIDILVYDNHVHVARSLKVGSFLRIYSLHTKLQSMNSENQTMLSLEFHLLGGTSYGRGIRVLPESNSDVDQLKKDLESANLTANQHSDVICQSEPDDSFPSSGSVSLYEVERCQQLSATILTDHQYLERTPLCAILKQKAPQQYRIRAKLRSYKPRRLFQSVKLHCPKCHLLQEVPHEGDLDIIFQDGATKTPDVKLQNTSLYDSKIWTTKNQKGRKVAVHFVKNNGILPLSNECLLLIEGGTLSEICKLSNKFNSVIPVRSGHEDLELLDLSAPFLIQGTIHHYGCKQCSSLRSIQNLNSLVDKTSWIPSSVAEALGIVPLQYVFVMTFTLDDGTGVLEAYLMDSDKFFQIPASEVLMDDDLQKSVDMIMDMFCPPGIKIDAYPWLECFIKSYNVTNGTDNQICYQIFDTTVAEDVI
Target sequence in this assay (Q96AP0 3-248, chain 2 of 2): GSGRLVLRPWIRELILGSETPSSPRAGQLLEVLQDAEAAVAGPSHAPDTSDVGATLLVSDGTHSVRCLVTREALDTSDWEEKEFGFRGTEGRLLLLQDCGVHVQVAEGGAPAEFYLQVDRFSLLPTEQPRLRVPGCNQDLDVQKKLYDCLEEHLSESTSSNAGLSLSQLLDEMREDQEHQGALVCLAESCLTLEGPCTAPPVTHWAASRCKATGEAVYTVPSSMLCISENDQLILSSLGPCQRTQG

[2] = target: T3, POT1;TPP1 (human;human, UniProt Q9NUX5;Q96AP0 1-634;3-248, |); test: EMSA
[3] = target: T4, POT1 Y36N;TPP1 (human;human, UniProt Q9NUX5;Q96AP0 1-634;3-248, Y36N|); test: EMSA
Target sequence in this assay (Q9NUX5 whole entry Y36N, chain 1 of 2): as the sequence (Q9NUX5 whole entry H266L, chain 1 of 2) above, with Y36N, L266H counted along it
Target sequence in this assay (Q96AP0 3-248, chain 2 of 2): as the sequence (Q96AP0 3-248, chain 2 of 2) above

[4] = target: T1, POT1-N; test: hydroxyl radical footprinting MS
[5] = target: T4, POT1 Y36N;TPP1; test: EMSA; remark: listed apart in the source
Target sequence in this assay (Q96AP0 3-248, stated change not applied, one chain of several): as the sequence (Q96AP0 3-248, chain 2 of 2) above

[6] = target: T3, POT1;TPP1; test: EMSA; remark: listed apart in the source
[7] = target: T1, POT1-N; test: hydroxyl radical footprinting MS; remark: listed apart in the source
[8] = target: T2, POT1 H266L;TPP1; test: stopped-flow CD
Target sequence in this assay (Q96AP0 3-248, stated change not applied, one chain of several): as the sequence (Q96AP0 3-248, chain 2 of 2) above

T3 sequence (Q96AP0 3-248, one chain of several): as the sequence (Q96AP0 3-248, chain 2 of 2) above

Row | Binder | Kd [1] | Kd [2] | Kd [3] | binding result [4] | apparent K (half saturation) [5] | apparent K (half saturation) [6] | binding result [7] | binding result [8]
1 | GGTTAGGGTTAG (ssDNA) [hT12] | 29.1 ± 9.3 nM | 1 ± 0.5 nM | 2.2 ± 1.1 nM | binds | – | – | – | –
2 | hT72 (ssDNA) DNA: GGTTAGGGTTAGGGTTAGGGTTAGGGTTAGGGTTAGGGTTAGGGTTAGGGTTAGGGTTAGGGTTAGGGTTAG | – | – | – | – | 4.5 ± 0.4 nM | 6.9 ± 0.6 nM | binds | binds
